From patent US5607850A, “Enzyme from microbial source: phthalyl amidase” (Eli Lilly and Company, priority 1995, dated 1997)

How the values were obtained:
[1] = Phthalyl amidase specific activity with chromogenic substrate (II) during purification (Tables 2 and 3); assay type: biochemical
Protocol: The assay reaction mixture (1 ml) consisted of 0.3 μmol of the chromogenic substrate (II) and 0.001-0.5 μg of enzyme preparation in 50 mM potassium phosphate buffer, pH 8.0 (buffer A). The enzymatic reaction was conducted at 30° C. for 10 minutes and the appearance of product was monitored at 380 nm (or 430 nm). The amount of substrate hydrolyzed was calculated from a standard curve of the amine product.
The phthalyl amidase activity reported in Table 2 was determined using the chromogenic substrate as in Example 3. A typical reaction mixture in a total volume of 1 ml contained 0.2 mg of the chromogenic substrate and an aliquot of phthalyl amidase in buffer A. The enzymatic reaction was conducted at 30° C. for 10-15 min. Formation of the reaction product was monitored with a spectrophotometer at 430 nm (or 380 nm) and quantitated from a standard curve of the product.
The concentrated and diafiltered Super-Q mainstream was applied to a hydroxylapatite column (3.2×40 cm) equilibrated in buffer A. After washing the column with this buffer, phthalyl amidase was eluted using a linear gradient of 0-500 mM phosphate buffer, pH 8.0. Fractions were assayed according to the chromogenic substrate method (see Example 3) and the active fractions were pooled (1 L) and concentrated (400 ml).

[2] = Effect of pH on phthalyl amidase activity; assay type: biochemical
Protocol: The effect of pH on the reaction rate of the analytical scale purified enzyme was determined using phthalamido carbacephem (III) as substrate. [drawing 5]
A typical reaction mixture consisted of 1 ml total volume and contained 0.1 mM III, 0.1 μM phthalyl amidase in 50 mM potassium phosphate buffer (pH 5.5-9.0) at 32° C. for 20 minutes. The reactions were stopped by the addition of 1 ml methanol. After removal of precipitate by centrifugation, an aliquot of the supernatant fraction (typically 30 μl) was monitored for the beta-lactam nucleus and phthalic acid by HPLC using a Zorbax C8 column (0.46×15 cm; MacMod Analytical Inc., Chadds Ford, Pa.). The two reaction products were eluted by a mobile phase constructed as continuous mixed gradients from (a) 1% ACN (acetonitrile)/0.2% TFA (trifluoroacetic acid) and (b) 80% ACN/0.2% TFA as follows: 1) 0% (b), 3min; 2) 0-50% (b), 0.5 min; 3) 50-100% (b), 3 min; 4) 100% (b), 2.5 min; 5) 100-1% (b), 0.1 min; and 6) 0% (b), 5 min. At a flow rate of 1.5 ml/min, retention times of the beta-lactam nucleus and phthalic acid, as measured at 254 nm, were 2.3 and 7.2 min, respectively.

[3] = Optimum reaction temperature of phthalyl amidase; assay type: biochemical
Protocol: Test reactions were carried out similar to Example 5 except that all incubations were performed in 50 mM potassium phosphate buffer at pH 8.2.Solutions of the substrate were pre-incubated for 5 minutes at temperatures between 2° and 60° C. The enzymatic reaction was initiated by the addition of phthalyl amidase and stopped by the addition of 1 ml methanol. Specific activity of the enzyme was determined by monitoring the hydrolysis of III by HPLC as in Example 5.

[4] = Optimum salt concentration for phthalyl amidase; assay type: biochemical; conditions: for Specific Activity: pH 8.2, 32° C.
Protocol: Test reactions were carried out similar to Example 6 except that buffer concentrations ranging from 10 to 200 mM at 32° C. were examined. All other conditions and analyses were the same.

[5] = Stability of phthalyl amidase: effect of ionic strength and pH; assay type: physicochemical
Protocol: The stability of phthalyl amidase at pH values ranging from 6-9 was determined as described in Example 5 at 30° C. in both 20 and 200 mM potassium phosphate buffer. […] In 200 mM buffer, the enzyme retained at least 80% of its activity for 100 hours irrespective of the pH of the incubating medium.

[6] = Temperature stability of phthalyl amidase; assay type: physicochemical; conditions: pH 8.2; for enzyme activity retained: 48 hours
Protocol: The phthalyl amidase enzyme was also tested for stability at varying temperature. The enzyme was incubated at pH 8.2 in the temperature range of 4°-50° C. for 48 hours in 50 and 200 mM phosphate buffer. […] In 200 mM buffer, 80% of the enzyme activity was retained in temperatures up to 35° C. and 30% of the enzyme activity was retained after 48 hours incubation at 40° C.

[7] = Isoelectric focusing of phthalyl amidase; assay type: physicochemical
Protocol: The molecular weight of the phthalyl amidase was determined to be 49,000 by electrospray mass spectrometry. The enzyme is monomeric with an isoelectric point estimated by isoelectric focusing to be pH 5.5.

B1: phthalyl amidase: specific enzyme which readily removes the phthalyl moiety from phthalyl-containing amides, from Xanthobacter agilis (protein)
chain: QAPSVHQHVAFTEEIGDLPDGSSYMIRVPENWNGVLIRDLDLVSGTSNSNAARYETMLKEGFAVAGTARHPLRQWQYDPAHEIENLNHVLDTFEENYGSPERVIQYGCSGGAHVSLAVAEDFSDRVDGSVALAAHTPVWIMNSFLDGWFSLQSLIGEYYVEAGHGPLSDLAITKLPNDGSSNSSGHGMEGDLPAAWRNAFTAANATPEGRARMALAFALGQWSPWLADNTPQPDLDDPEAIADSVYESAMRLAGSPGGEARIMFENAARGQQLSWNDDIDYADFWENSNPAMKSAVQELYDTAGLDLQSDIETVNSQPRIEASQYALDYWNTPGRNVIGDPEVPVLRLHMIGDYQIPYSLVQGYSDLISENNNDDLYRTAFVQSTGHCNFTAAESSAAIEVMMQRLDTGEWPSTEPDDLNAIAEASNTGTEARFMALDGWEIPEYNRTWKPE
**Q.** Which “Spec. Act.” value ([1]; Table 2, Ammonium Sulfate: 67-97% cut) does the source give for B1 here?
**A.** Its value is 1.547 Units/mg.

**Q.** What about the “Spec. Act.” value ([1]; Table 2, Crude Extract) of the same molecule?
**A.** The value was 0.063 Units/mg.

**Q.** What about the “Spec. Act.” value ([1]; Table 2, Hydroxylapatite) of the same molecule?
**A.** The value was 5.52 Units/mg.

**Q.** What about the “Spec. Act.” value ([1]; Table 2, Mono P) of the same molecule?
**A.** Its value is 7.2 Units/mg.

**Q.** What about the “Spec. Act.” value ([1]; Table 2, Phenyl-Sepharose) of the same molecule?
**A.** The value was 2.505 Units/mg.

**Q.** What about the “Spec. Act.” value ([1]; Table 2, Q Sepharose) of the same molecule?
**A.** Its value is 1.214 Units/mg.

**Q.** What about the “Spec. Act.” value ([1]; Table 3 (preparative), Crude Extract) of the same molecule?
**A.** Its value is 0.8 Units/mg.

**Q.** And the “Spec. Act.” value ([1]; Table 3 (preparative), Hydroxylapatite)?
**A.** Its value is 9.0 Units/mg.

**Q.** What about the “Spec. Act.” value ([1]; Table 3 (preparative), Super-Q) of the same molecule?
**A.** The value was 3.0 Units/mg.

**Q.** What about the “Reactive pH range” value [2] of the same molecule?
**A.** The value was 5.5 to 9.0 pH.

**Q.** And the “optimum pH” value [2]?
**A.** Its value is 8.0±0.4 pH.

**Q.** And the “Optimal pH range for enzyme activity” value ([2]; 32° C., 50 mM potassium phosphate)?
**A.** The value was no less than 7.8 pH.

**Q.** And the “Specific Activity” value ([2]; pH 7.0, 32° C.)?
**A.** The value was 125.4 μmol/min/μmol enzyme.

**Q.** What about the “Specific Activity” value ([2]; pH 7.2, 32° C.) of the same molecule?
**A.** Its value is 130.4 μmol/min/μmol enzyme.

**Q.** What about the “Specific Activity” value ([2]; pH 7.4, 32° C.) of the same molecule?
**A.** Its value is 155.2 μmol/min/μmol enzyme.

**Q.** What about the “Specific Activity” value ([2]; pH 7.6, 32° C.) of the same molecule?
**A.** The value was 172.5 μmol/min/μmol enzyme.

**Q.** What about the “Specific Activity” value ([2]; pH 7.8, 32° C.) of the same molecule?
**A.** The value was 184.2 μmol/min/μmol enzyme.

**Q.** What about the “Specific Activity” value ([2]; pH 8.0, 32° C.) of the same molecule?
**A.** The value was 195.3 μmol/min/μmol enzyme.

**Q.** And the “Specific Activity” value ([2]; pH 8.2, 32° C.)?
**A.** Its value is 201.2 μmol/min/μmol enzyme.

**Q.** And the “Specific Activity” value ([2]; pH 8.4, 32° C.)?
**A.** The value was 208.0 μmol/min/μmol enzyme.

**Q.** What about the “Specific Activity” value ([2]; pH 8.6, 32° C.) of the same molecule?
**A.** Its value is 181.7 μmol/min/μmol enzyme.

**Q.** And the “Specific Activity” value ([2]; pH 8.8, 32° C.)?
**A.** Its value is 185.1 μmol/min/μmol enzyme.

**Q.** And the “Specific Activity” value ([2]; pH 9.0, 32° C.)?
**A.** The value was 33.1 μmol/min/μmol enzyme.

**Q.** What about the “enzyme activity outside temperature range” value ([3]; below 10° C. and above 50° C., pH 8.2) of the same molecule?
**A.** The value was “Little enzyme activity”.

**Q.** And the “temperature of maximum reaction rate” value ([3]; pH 8.2, 50 mM potassium phosphate)?
**A.** Its value is 34 °C.

**Q.** And the “effect of high salt concentration on specific activity” value ([4]; 10 to 200 mM buffer)?
**A.** Its value is “markedly improved the specific activity”.

**Q.** And the “Specific Activity” value ([4]; K Phosphate 10 mM)?
**A.** The value was 148 μmol/min/μmol enzyme.

**Q.** What about the “Specific Activity” value ([4]; K Phosphate 50 mM) of the same molecule?
**A.** Its value is 300 μmol/min/μmol enzyme.

**Q.** And the “Specific Activity” value ([4]; K Phosphate 100 mM)?
**A.** Its value is 350 μmol/min/μmol enzyme.

**Q.** And the “Specific Activity” value ([4]; K Phosphate 200 mM)?
**A.** The value was 360 μmol/min/μmol enzyme.

**Q.** And the “Specific Activity” value ([4]; NH4 Acetate 10 mM)?
**A.** Its value is 25 μmol/min/μmol enzyme.

**Q.** What about the “Specific Activity” value ([4]; NH4 Acetate 50 mM) of the same molecule?
**A.** Its value is 50 μmol/min/μmol enzyme.

**Q.** What about the “Specific Activity” value ([4]; NH4 Acetate 100 mM) of the same molecule?
**A.** Its value is 75 μmol/min/μmol enzyme.

**Q.** And the “Specific Activity” value ([4]; NH4 Acetate 200 mM)?
**A.** Its value is 100 μmol/min/μmol enzyme.

**Q.** And the “Specific Activity” value ([4]; Tris-HCl 10 mM)?
**A.** The value was 73 μmol/min/μmol enzyme.

**Q.** And the “Specific Activity” value ([4]; Tris-HCl 50 mM)?
**A.** The value was 230 μmol/min/μmol enzyme.

**Q.** What about the “Specific Activity” value ([4]; Tris-HCl 100 mM) of the same molecule?
**A.** Its value is 275 μmol/min/μmol enzyme.

**Q.** What about the “Specific Activity” value ([4]; Tris-HCl 200 mM) of the same molecule?
**A.** Its value is 300 μmol/min/μmol enzyme.

**Q.** What about the Optimum ionic strength [5] of the same molecule?
**A.** The Optimum ionic strength was no less than 200 mM.

**Q.** What about the “ionic strength that enhances pH and temperature stability” value [5] of the same molecule?
**A.** Its value is “above 20 mM”.

**Q.** And the “optimum stability pH” value [5]?
**A.** Its value is 8.0±0.4 pH.

**Q.** What about the “pH range of stability” value [5] of the same molecule?
**A.** The value was 6-9 pH.

**Q.** And the enzyme activity lost ([5]; 20 mM potassium phosphate, within 2 hours, 30° C., any pH 6-9)?
**A.** Its enzyme activity lost is “all enzyme activity as lost”.

**Q.** And the enzyme activity retained ([5]; 200 mM potassium phosphate, 100 hours, 30° C., pH 6-9)?
**A.** Its enzyme activity retained is “at least 80%”.

**Q.** What about the enzyme activity lost ([6]; 50 mM phosphate, above 40° C., within 48 hours) of the same molecule?
**A.** Its enzyme activity lost is “all enzyme activity was lost”.

**Q.** What about the enzyme activity retained ([6]; 50 mM phosphate, below 25° C.) of the same molecule?
**A.** The enzyme activity retained was 90%.

**Q.** What about the enzyme activity retained ([6]; 200 mM phosphate, 40° C.) of the same molecule?
**A.** The enzyme activity retained was 30%.

**Q.** And the isoelectric point [7]?
**A.** Its isoelectric point is roughly 5.5 pH.
